No end group written: not given here.

Consider eleven molecules from patent publication US20140274906A1 (NONO, published 2014).

The labels stand for the following.
T1: ND2 310-321 peptide (human)
T1 peptide: NVKMKWQFEHTK

B1: biotinylated ND2 310-321 (peptide)
peptide: NVKMKWQFEHTK
modifications: also: biotinylated, position not given here
B2: Src40-49 peptide (peptide)
peptide: KPASADGHRG
B3: Tat-ND2 310-321 (peptide)
peptide: YGRKKRRQRRRNVKMKWQFEHTK
B4: biotinylated scrambled Src 40-58 control peptide (peptide)
peptide: AGSHAPFPSPARAGVAPDA
modifications: also: biotinylated, position not given here
notes: Scrambled negative control; also called sSrc 40-58; B-sSRC 40-58
B5: GST-ND2.1.4 (AA 289-321) (other)
chain: NLYFYLRLIYSTSITLLPMSNNVKMKWQFEHTK
modifications: also: GST fusion, linker and position in fusion not given here
notes: also called ND2 2.1.4; not shown: glutathione S-transferase (GST) fusion partner
B6: Tat-Src40-49 (peptide)
peptide: YGRKKRRQRRRKPASADGHRG
B7: biotinylated Src 40-58 peptide (peptide)
peptide: KPASADGHRGPSAAFVPAA
modifications: also: biotinylated, position not given here
notes: Probe in dot blots (~15 ug/ml) and ELISA (6 uM); also called biotin-Src 40-58; Biotin-Src 40-58
B8: Src40-49-Tat (peptide)
peptide: KPASADGHRGYGRKKRRQRRR
B9: Src 40-58 peptide (plated, unlabelled) (peptide)
peptide: KPASADGHRGPSAAFVPAA
B10: biotinylated scrambled Src 40-49 control peptide (peptide)
peptide: GAAKRPSDGH
modifications: also: biotinylated, position not given here
notes: also called Bio-sSrc 40-49; sSrc40-49
B11: biotinylated Src40-49 peptide (peptide)
peptide: KPASADGHRG
modifications: also: biotinylated, position not given here
notes: Labelled probe; also called bio-Src 40-49; Bio-Src40-49

The assay “Tat-Src40-49” deals with B6. The assay is described as follows: dot blot (FIG. 5A).
The target in the assay “Src40-49-Tat” is B8. The assay is described as follows: dot blot (FIG. 5A).
The assay “Src40-49 peptide” deals with B2. The assay is described as follows: dot blot (FIG. 5A).
The target in assay [1] is B9. The assay is described as follows: ELISA (FIG. 5B). (In general: ELISA stands for enzyme-linked immunosorbent assay.)
Assay [2] deals with B1. The assay is described as follows: dot blot, Src fragments spotted, probed with Bio-ND2 310-321 (FIG. 5A).
Assay [3] deals with B11. The assay is described as follows: competition ELISA, competitor against coated ND2 310-321 peptide (FIG. 7).
Assay [4] has as its target B7. The assay can be described thus: ELISA (FIG. 6).
Assay [5] concerns the target T2, GST-ND2.1 (AA239-321) (human, UniProt P03891 239-321).
T2 construct: not shown: glutathione S-transferase (GST) fusion partner
The assay can be described thus: dot blot of GST-ND2 constructs (FIG. 2B).

Assay [6] concerns the target T3, GST-ND2 (full length ND2) (human, UniProt P03891 1-347).
T3 construct: GST fusion protein, expressed and purified; printed as full length ND2; not shown: glutathione S-transferase (GST) fusion partner
The assay is described as follows: dot blot of GST-ND2 constructs (FIG. 2B).

Assay [7] concerns the target B7. The assay can be described thus: ELISA (FIG. 2C).
The target of assay [8] is B4. The assay can be described thus: dot blot of GST-ND2 constructs (FIG. 2B).
Description: (§1) In general, 1-10 ug of peptide or recombinant protein was spotted onto nitrocellulose and dried overnight. Membranes were blocked with 5% milk for 1 h at room temperature, then incubated with biotinylated peptides (˜15 ug/ml) for 2 hours the washed using standard wash buffers. Bound probe was detected using a short incubation with streptavidin conjugated to horseradish peroxidase (SA-HRP) and standard detection reagents, predominantly chemiluminescence kits.
In assay [9] the target is T1, ND2 310-321 peptide. The assay can be described thus: competition ELISA, competitor against biotinylated Src40-49 (FIG. 5D).
The target in the assay “GST-ND2.1.4 (AA 289-321)” is B5. The assay can be described thus: ELISA, GST-ND2.1.4 coated, biotin-Src 40-58 at 6 uM, SA-HRP (FIG. 2C).
Assay [10] concerns the target T3, GST-ND2 (full length ND2). The assay is described as follows: dot blot, GST proteins spotted, probed with biotinylated Src 40-58 (FIG. 1C).
Description: as §1
In assay [11] the target is T1, ND2 310-321 peptide. The assay can be described thus: ELISA (FIG. 6); ND2 310-321 is the weaker comparator.
Assay [12] concerns the target B3. The assay is described as follows: ELISA (FIG. 6).
Assay [13] addresses T2, GST-ND2.1 (AA239-321). The assay is described as follows: ELISA, GST-ND2.1 coated, biotin-Src 40-58 at 6 uM, SA-HRP (FIG. 2C).
The target in assay [14] is B3. The assay can be described thus: competition ELISA, competitor against biotinylated Src40-49, Tat-ND2 310-321 pre-coated (FIG. 5E).
Assay [15] concerns the target B1. The assay can be described thus: ELISA, Src peptides plated at ~5 uM (FIG. 5B).
Assay [16] addresses B3. The assay can be described thus: ELISA, plate coated with Tat-ND2 310-321 (FIG. 5C).

T3 sequence (P03891 whole entry, the tested form may be a part): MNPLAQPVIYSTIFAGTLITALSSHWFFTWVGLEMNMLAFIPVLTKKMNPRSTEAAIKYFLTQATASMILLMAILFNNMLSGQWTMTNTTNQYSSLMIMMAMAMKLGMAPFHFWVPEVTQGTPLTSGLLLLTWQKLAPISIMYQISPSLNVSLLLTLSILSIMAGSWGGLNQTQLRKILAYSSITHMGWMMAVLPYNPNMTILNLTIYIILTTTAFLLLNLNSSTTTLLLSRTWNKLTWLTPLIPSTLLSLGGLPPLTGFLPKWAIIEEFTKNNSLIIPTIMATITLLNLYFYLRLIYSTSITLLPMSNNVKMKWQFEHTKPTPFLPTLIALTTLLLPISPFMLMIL

For B1, the binding result (with Tat-Src40-49; with Src40-49-Tat; with Src40-49 peptide; in [1]) was “binds” throughout.
As to B2, the binding result with biotinylated ND2 310-321 [2] is on record as “binds”.
Take B3: the binding result in assay [3] and in [4] was “binds” in each case.
Turning to B4, the binding result (with GST-ND2.1 (AA239-321) [5]; in [6]) was “no binding (tested: ~15 ug/ml biotinylated peptide)” in each case.
As for B5, the binding result is listed as “binds” in [7] and “no binding (tested: ~15 ug/ml biotinylated peptide)” in [8].
Turning to B6, the binding result with ND2 310-321 peptide [9] and with biotinylated ND2 310-321 [2] was “binds” each time.
B7: the binding result (with GST-ND2.1.4 (AA 289-321); in assay [10]; in the assay with ND2 310-321 peptide [11]; with Tat-ND2 310-321 [12]; in the assay with GST-ND2.1 (AA239-321) [13]) was “binds” throughout.
For B8, the binding result in the assay with biotinylated ND2 310-321 [2] and with Tat-ND2 310-321 [14] was “binds” in each case.
For the molecule B9, the binding result with biotinylated ND2 310-321 [15] is listed as “binds”.
Take B10: in the assay with Tat-ND2 310-321 [16], the binding result is listed as “no binding”.
Still for that read-out and setting: to B11 belongs “binds”.
